Reference: patent publication US20210163540, “POLYPEPTIDES SELF-ASSEMBLING INTO NANOPARTICLES” (ETH ZÜRICH, published 2021)

Experiments:
OTR503 (Artificial) = molecular target: T1, OTR503 (Artificial) (UniProt Q9XDM8); details: fluorescence quenching kinetics koff/kon
T1 sequence: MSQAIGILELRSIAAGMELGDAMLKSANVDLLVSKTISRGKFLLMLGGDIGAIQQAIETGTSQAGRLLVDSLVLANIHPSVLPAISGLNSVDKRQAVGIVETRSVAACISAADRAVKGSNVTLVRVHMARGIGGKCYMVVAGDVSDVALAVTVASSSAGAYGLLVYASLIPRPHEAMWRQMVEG

OTR501 (Artificial) = molecular target: T2, OTR501 (Artificial) (UniProt Q9XDM8); details: fluorescence quenching kinetics koff/kon
T2 sequence: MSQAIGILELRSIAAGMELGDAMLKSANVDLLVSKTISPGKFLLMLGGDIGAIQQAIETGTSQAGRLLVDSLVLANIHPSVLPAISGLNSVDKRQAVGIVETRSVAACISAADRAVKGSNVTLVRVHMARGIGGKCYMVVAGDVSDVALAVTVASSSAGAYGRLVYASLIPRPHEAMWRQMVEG

OP (Artificial) = molecular target: T3, OP (Artificial) (UniProt Q9XDM8); details: fluorescence quenching kinetics koff/kon
T3 sequence: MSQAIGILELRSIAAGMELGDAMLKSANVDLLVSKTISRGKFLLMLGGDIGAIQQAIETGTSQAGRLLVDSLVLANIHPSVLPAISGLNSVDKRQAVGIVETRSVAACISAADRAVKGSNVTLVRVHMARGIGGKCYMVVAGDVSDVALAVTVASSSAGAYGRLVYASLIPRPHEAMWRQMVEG

OTR502 (Artificial) = molecular target: T4, OTR502 (Artificial) (UniProt Q9XDM8); details: fluorescence quenching kinetics koff/kon
T4 sequence: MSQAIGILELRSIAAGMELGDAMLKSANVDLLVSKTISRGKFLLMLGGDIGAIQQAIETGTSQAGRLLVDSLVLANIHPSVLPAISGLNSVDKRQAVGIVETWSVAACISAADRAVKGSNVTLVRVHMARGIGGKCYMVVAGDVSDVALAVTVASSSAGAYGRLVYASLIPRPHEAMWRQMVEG

OP [1] = molecular target: T5, OP (Artificial, UniProt Q9XDM8 SEQ:1-184); assay: EMSA; 2:1 ssDNA to capsid; details: tags: C-terminal His6; chain copies: 24 (self-assembled cage)
T5 chain: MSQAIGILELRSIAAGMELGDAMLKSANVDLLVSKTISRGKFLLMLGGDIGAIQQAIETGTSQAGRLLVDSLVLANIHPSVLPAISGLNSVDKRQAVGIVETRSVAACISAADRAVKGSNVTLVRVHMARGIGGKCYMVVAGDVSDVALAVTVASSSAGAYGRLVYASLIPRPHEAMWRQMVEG

O3-33 [2] = molecular target: T6, O3-33 (Artificial, UniProt Q9XDM8 SEQ:1-184, R11T,R39P,R66E,R103W,R130F,R163L); assay: EMSA; PBS, room temp; also no binding by fluorescence quenching; details: tags: C-terminal His6; pET29b(+)-O3-33 (David Baker), PDB 3VCD; chain copies: 24 (self-assembled cage); label: Atto488 5'
T6 sequence: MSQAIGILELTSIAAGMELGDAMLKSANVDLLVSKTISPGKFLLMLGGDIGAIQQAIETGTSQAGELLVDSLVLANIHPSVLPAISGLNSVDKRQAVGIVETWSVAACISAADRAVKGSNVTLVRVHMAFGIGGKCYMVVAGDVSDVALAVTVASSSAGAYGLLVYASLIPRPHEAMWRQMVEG

OTR402 = molecular target: T7, OTR402 (Artificial, UniProt Q9XDM8 SEQ:1-184); assay: fluorescence quenching kinetics koff/kon, PBS, room temp; details: tags: C-terminal His6; chain copies: 24 (inferred); label: Atto488 5'
T7 chain: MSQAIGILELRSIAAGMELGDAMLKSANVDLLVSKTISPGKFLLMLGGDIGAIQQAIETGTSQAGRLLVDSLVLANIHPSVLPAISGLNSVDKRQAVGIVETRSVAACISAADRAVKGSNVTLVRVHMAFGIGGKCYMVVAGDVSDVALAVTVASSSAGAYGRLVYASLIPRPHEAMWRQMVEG

OTR501 = molecular target: T8, OTR501 (Artificial, UniProt Q9XDM8 SEQ:1-184); assay: as above; details: tags: C-terminal His6; chain copies: 24 (inferred); label: Atto488 5'
T8 chain: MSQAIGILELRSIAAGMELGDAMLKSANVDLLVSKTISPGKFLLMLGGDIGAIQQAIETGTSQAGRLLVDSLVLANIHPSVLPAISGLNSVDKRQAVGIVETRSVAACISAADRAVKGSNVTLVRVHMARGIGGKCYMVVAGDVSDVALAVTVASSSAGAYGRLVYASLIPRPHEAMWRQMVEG

OTR401 = molecular target: T9, OTR401 (Artificial, UniProt Q9XDM8 SEQ:1-184); assay: as above; details: tags: C-terminal His6; chain copies: 24 (inferred); label: Atto488 5'
T9 chain: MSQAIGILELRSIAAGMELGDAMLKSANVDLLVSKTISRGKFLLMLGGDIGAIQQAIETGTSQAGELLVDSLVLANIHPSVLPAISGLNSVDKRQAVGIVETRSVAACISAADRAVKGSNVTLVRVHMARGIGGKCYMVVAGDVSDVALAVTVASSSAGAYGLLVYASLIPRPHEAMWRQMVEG

OTR302 = molecular target: T10, OTR302 (Artificial, UniProt Q9XDM8 SEQ:1-184); assay: as above; details: tags: C-terminal His tag; chain copies: 24 (inferred); label: Atto488 5'
T10 chain: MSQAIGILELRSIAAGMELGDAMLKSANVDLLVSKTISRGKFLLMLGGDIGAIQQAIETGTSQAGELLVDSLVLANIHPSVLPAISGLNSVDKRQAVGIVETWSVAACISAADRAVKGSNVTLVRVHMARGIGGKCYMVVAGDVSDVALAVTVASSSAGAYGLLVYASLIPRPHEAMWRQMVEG

OTR503 = molecular target: T11, OTR503 (Artificial, UniProt Q9XDM8 SEQ:1-184); assay: as above; details: tags: C-terminal His6; chain copies: 24 (inferred); label: Atto488 5'
T11 chain: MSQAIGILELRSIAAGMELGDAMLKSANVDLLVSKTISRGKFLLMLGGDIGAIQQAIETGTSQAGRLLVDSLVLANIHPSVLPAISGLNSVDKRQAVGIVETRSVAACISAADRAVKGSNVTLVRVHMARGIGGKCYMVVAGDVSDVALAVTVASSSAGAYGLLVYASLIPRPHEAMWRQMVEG

OTR502 = molecular target: T12, OTR502 (Artificial, UniProt Q9XDM8 SEQ:1-184); assay: as above; details: tags: C-terminal His6; chain copies: 24 (inferred); label: Atto488 5'
T12 chain: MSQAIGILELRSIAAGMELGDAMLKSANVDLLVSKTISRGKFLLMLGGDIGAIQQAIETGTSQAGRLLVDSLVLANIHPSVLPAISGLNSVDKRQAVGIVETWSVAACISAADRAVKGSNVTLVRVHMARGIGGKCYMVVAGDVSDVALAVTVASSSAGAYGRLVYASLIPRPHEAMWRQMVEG

OTR301 = molecular target: T13, OTR301 (Artificial, UniProt Q9XDM8 SEQ:1-184); assay: as above; details: tags: C-terminal His6; chain copies: 24 (inferred); label: Atto488 5'
T13 chain: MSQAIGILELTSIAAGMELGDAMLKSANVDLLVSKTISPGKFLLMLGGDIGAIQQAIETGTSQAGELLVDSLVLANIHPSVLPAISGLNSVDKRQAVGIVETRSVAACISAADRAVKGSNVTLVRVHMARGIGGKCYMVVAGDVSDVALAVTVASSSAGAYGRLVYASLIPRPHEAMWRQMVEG

OP [3] = molecular target: T5, OP; assay: fluorescence quenching kinetics koff/kon, PBS, room temp; p321 gives (2.4±0.3)e-10; details: tags: C-terminal His6; chain copies: 24 (self-assembled cage); label: Atto488 5'
OTR101 = molecular target: T14, OTR101 (Artificial, UniProt Q9XDM8 SEQ:1-184); assay: EMSA; also no binding by fluorescence quenching; details: tags: C-terminal His6; chain copies: 24 (inferred); label: Atto488 5'
T14 chain: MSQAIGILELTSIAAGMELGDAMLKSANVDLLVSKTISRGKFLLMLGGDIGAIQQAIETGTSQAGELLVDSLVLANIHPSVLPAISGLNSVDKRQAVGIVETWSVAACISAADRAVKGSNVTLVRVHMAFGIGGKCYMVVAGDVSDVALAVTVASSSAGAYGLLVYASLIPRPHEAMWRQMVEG

OTR201 = molecular target: T15, OTR201 (Artificial, UniProt Q9XDM8 SEQ:1-184); assay: EMSA; also no binding by fluorescence quenching; details: tags: C-terminal His6; chain copies: 24 (inferred); label: Atto488 5'
T15 chain: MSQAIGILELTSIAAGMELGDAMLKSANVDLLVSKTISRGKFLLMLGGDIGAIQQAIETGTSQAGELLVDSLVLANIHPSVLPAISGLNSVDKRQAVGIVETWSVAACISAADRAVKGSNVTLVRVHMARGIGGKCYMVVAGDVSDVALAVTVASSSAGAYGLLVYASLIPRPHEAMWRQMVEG

OTR203 = molecular target: T16, OTR203 (Artificial, UniProt Q9XDM8 SEQ:1-184); assay: EMSA; also no binding by fluorescence quenching; details: tags: C-terminal His6; chain copies: 24 (inferred); label: Atto488 5'
T16 chain: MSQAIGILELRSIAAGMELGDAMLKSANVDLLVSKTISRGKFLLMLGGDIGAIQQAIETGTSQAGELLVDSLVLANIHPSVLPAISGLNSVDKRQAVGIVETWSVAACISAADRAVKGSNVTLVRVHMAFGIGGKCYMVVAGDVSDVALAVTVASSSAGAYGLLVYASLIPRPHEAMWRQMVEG

OTR202 = molecular target: T17, OTR202 (Artificial, UniProt Q9XDM8 SEQ:1-184); assay: EMSA; also no binding by fluorescence quenching; details: tags: C-terminal His6; chain copies: 24 (inferred); label: Atto488 5'
T17 chain: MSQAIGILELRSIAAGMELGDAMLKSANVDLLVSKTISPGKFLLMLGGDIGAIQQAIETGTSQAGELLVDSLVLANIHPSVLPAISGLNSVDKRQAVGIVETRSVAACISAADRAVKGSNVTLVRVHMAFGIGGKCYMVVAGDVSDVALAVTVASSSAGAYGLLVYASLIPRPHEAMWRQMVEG

OP [4] = molecular target: T5, OP; assay: EMSA; PBS, room temp; near complete binding at 0.5 equiv. cage, 1.98 guests per cage by SEC; details: tags: C-terminal His6; chain copies: 24 (self-assembled cage)
O3-33 [5] = molecular target: T6, O3-33; assay: EMSA; 2 equiv. O3-33; details: tags: C-terminal His6; pET29b(+)-O3-33 (David Baker), PDB 3VCD; chain copies: 24 (self-assembled cage)

## hpDNA (Atto488-hairpin DNA)
OTR503 (Artificial)
  Kd: 0.184 nM
OTR501 (Artificial)
  Kd: 0.39 nM
OP (Artificial)
  Kd: 1.21 nM
OTR502 (Artificial)
  Kd: 0.684 nM

## CGATTAGCGGTCTGAATAGCGTGG (ssDNA) [ssDNA6]
OP [1]
  binding result: binds

## TTAATTAAAGACTTCAAGCGG (ssDNA) [Atto488-ssDNA (A488-DNA)]
O3-33 [2]
  binding result: no binding
OTR402
  Kd: 0.248 nM
OTR501
  Kd: 0.13 nM
OTR401
  Kd: 16.1 nM
OTR302
  Kd: 8.59 nM
OTR503
  Kd: 0.609 nM
OTR502
  Kd: 0.289 nM
OTR301
  Kd: 2.12 nM
OP [3]
  Kd: 0.242 nM
OTR101
  binding result: no binding
OTR201
  binding result: no binding
OTR203
  binding result: no binding
OTR202
  binding result: no binding

## CGTGGCGAGCAGCAGCGC (ssDNA) [ssDNA1]
OP [1]
  binding result: binds

## CCACGCTATTCAGACCGCTAATCG (ssDNA) [ssDNA8]
OP [1]
  binding result: binds

B1: dsDNA (GFP-g/GFP-p) (dsDNA)
DNA 1: GAACTTCAGGGTCAGCTTGGG
DNA 2: CAAGCTGACCCTGAAGTTCTT
OP [4]
  binding result: binds
O3-33 [5]
  binding result: no binding

## CCTGGTGCGTGTGCACATGG (ssDNA) [ssDNA2]
OP [1]
  binding result: binds
